Where a chain is given by its changes, count along the chain named.
Legend:
[1] = target: GRIP1 563-767 His6 GST fusion protein (mouse) (UniProt Q61026); experiment: GST-GRIP1 (563-767) pull-down
[2] = target: GST-GRIP1 (GRIP1 amino acids 563-1121) (mouse) (UniProt Q61026); experiment: GST-GRIP1 pull-down of in vitro translated GR
[3] = target: hTRβ ligand binding domain (hTRβ LBD), in vitro translated, as used in the GST-GRIP1 binding and peptide competition assays (human) (UniProt P10828); experiment: peptide competition (FIG. 11c)
[4] = target: hTRβ ligand binding domain (hTRβ LBD), in vitro translated, as used in the GST-GRIP1 binding and peptide competition assays (human) (UniProt P10828); experiment: GST-GRIP1 (563-767) mutant pull-down of in vitro translated TR
[5] = target: hTRβ ligand binding domain (hTRβ LBD), in vitro translated, as used in the GST-GRIP1 binding and peptide competition assays (human) (UniProt P10828); experiment: titration of the amount of GST-GRIP1 fragment in the pull-down of TR; assigned to the fragment with only NR-box 3 functional
[6] = target: hTRβ ligand binding domain (hTRβ LBD), in vitro translated, as used in the GST-GRIP1 binding and peptide competition assays (human) (UniProt P10828); experiment: peptide competition of hTRβ LBD binding to GST-GRIP1 (563-767) beads
[7] = target: glucocorticoid receptor (GR), full length; experiment: peptide competition of GR binding to GRIP1
[8] = target: hTRβ ligand binding domain (hTRβ LBD), in vitro translated, as used in the GST-GRIP1 binding and peptide competition assays (human) (UniProt P10828); experiment: titration of the amount of GST-GRIP1 fragment in the pull-down of TR
[9] = target: hTRβ ligand binding domain (hTRβ LBD), in vitro translated, as used in the GST-GRIP1 binding and peptide competition assays (human) (UniProt P10828); experiment: titration of the amount of GST-GRIP1 fragment in the pull-down of TR; assigned to the fragment with only NR-box 2 functional
[10] = target: T1, hTRβ ligand binding domain (hTRβ LBD), in vitro translated, as used in the GST-GRIP1 binding and peptide … (human, UniProt P10828 202-461, limits assumed, [35S]-methionine labelled (in vitro translated)); experiment: peptide competition of hTRβ LBD binding to GST-GRIP1 (563-767) beads
T1 construct: domain: LBD; also called TR LBD; TR-LBD
T1 sequence (looked up): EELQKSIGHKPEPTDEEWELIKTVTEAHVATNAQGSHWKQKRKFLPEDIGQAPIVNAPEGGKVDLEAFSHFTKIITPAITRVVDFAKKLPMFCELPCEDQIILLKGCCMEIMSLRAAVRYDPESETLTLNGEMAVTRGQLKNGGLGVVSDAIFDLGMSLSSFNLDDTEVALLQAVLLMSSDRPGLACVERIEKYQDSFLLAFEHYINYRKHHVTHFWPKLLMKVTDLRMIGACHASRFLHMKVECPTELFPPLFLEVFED

[11] = target: T2, GRIP1, full-length (mouse, UniProt Q61026 5-1462, limits assumed, [35S]-Met labelled in the pull-down assays (in vitro translated from pSG5-GRIP1)); experiment: cell-based or functional assay
[12] = target: T3, hTRβ1 L454R, full-length (human, UniProt P10828 1-461, [35S]-Met labelled (in vitro translated)); experiment: GST-GRIP1 pull-down of [35S]-hTRβ1 with T3
T3 construct: range 1-461
T3 sequence (looked up): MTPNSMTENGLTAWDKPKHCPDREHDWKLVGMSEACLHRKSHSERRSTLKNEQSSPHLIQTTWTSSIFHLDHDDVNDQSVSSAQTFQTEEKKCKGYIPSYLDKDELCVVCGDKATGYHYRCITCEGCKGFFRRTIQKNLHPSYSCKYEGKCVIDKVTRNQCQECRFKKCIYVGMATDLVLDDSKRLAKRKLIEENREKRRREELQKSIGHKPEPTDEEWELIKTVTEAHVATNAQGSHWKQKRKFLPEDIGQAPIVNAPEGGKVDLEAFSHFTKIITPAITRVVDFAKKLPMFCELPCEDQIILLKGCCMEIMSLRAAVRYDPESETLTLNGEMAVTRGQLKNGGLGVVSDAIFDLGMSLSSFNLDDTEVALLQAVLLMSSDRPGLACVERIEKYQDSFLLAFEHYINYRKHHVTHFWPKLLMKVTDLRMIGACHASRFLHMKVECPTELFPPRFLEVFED

[13] = target: T4, hTRβ1 E457K, full-length (human, UniProt P10828 1-461, [35S]-Met labelled (in vitro translated)); experiment: GST-GRIP1 pull-down of [35S]-hTRβ1 with T3
T4 construct: range 1-461
T4 sequence (looked up): T3 sequence (looked up) with R454L, E457K

[14] = target: T2, GRIP1, full-length; experiment: GST-hERα LBD pull-down of 35S-GRIP1, 1 µM DES
[15] = target: T2, GRIP1, full-length; experiment: GST-hERα LBD pull-down of 35S-GRIP1, no ligand or 1 µM OHT
[16] = target: T5, Human TRβ LBD (His6-E202-D461), purified, liganded with T3 (human, UniProt P10828 202-461); experiment: cocrystallisation and X-ray structure, 3.6 Å, T3-liganded
T5 construct: range 202-461; Protein of the cocrystal; also called hTRβ LBD; hTR LBD
T5 sequence: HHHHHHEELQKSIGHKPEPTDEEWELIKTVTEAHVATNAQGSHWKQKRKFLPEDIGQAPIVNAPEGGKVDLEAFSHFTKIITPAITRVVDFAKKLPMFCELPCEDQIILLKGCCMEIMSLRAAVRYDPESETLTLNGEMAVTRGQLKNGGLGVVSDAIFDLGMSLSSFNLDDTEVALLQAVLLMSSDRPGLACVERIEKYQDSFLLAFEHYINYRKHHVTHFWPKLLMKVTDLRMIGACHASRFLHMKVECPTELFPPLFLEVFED

T2 sequence (Q61026 5-1462 limits assumed): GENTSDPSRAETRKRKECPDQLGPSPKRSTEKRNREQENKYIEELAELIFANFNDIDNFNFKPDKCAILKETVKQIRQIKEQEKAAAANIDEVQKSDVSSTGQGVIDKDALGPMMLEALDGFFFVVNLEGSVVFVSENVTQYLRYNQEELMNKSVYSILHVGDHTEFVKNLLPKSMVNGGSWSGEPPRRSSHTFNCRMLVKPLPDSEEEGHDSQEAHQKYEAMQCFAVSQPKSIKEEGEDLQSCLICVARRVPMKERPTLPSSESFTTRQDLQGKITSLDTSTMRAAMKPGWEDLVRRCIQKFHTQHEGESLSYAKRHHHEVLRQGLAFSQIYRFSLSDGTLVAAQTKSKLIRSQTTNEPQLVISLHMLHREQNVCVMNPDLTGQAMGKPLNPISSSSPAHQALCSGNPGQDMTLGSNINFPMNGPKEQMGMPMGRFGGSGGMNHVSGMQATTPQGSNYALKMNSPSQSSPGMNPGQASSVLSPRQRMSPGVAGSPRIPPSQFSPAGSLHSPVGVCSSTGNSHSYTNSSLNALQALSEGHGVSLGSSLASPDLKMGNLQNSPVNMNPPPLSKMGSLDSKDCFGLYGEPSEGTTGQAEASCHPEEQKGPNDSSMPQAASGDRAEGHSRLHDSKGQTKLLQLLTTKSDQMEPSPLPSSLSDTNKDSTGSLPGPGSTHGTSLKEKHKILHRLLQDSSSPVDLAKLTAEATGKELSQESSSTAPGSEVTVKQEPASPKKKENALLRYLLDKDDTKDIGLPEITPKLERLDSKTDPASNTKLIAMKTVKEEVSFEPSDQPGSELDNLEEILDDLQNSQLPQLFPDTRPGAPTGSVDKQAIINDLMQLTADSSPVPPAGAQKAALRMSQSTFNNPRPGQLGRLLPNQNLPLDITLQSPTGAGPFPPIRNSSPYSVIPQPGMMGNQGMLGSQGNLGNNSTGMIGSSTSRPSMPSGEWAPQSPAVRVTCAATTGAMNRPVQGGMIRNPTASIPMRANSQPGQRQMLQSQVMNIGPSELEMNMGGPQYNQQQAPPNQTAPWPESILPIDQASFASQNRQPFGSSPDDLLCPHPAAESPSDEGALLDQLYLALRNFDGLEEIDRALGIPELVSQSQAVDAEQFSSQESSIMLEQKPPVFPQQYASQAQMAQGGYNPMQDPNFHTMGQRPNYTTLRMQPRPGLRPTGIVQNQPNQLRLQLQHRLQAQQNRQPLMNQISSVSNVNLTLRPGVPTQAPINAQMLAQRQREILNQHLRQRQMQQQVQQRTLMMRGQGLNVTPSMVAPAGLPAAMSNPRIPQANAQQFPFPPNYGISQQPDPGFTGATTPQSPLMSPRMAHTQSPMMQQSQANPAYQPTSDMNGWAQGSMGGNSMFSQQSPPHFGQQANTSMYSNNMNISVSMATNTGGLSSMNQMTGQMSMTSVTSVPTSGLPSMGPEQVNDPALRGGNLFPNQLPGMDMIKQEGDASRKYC
Sequence of glucocorticoid receptor (GR), full length (P06536 whole entry, the tested form may be a part): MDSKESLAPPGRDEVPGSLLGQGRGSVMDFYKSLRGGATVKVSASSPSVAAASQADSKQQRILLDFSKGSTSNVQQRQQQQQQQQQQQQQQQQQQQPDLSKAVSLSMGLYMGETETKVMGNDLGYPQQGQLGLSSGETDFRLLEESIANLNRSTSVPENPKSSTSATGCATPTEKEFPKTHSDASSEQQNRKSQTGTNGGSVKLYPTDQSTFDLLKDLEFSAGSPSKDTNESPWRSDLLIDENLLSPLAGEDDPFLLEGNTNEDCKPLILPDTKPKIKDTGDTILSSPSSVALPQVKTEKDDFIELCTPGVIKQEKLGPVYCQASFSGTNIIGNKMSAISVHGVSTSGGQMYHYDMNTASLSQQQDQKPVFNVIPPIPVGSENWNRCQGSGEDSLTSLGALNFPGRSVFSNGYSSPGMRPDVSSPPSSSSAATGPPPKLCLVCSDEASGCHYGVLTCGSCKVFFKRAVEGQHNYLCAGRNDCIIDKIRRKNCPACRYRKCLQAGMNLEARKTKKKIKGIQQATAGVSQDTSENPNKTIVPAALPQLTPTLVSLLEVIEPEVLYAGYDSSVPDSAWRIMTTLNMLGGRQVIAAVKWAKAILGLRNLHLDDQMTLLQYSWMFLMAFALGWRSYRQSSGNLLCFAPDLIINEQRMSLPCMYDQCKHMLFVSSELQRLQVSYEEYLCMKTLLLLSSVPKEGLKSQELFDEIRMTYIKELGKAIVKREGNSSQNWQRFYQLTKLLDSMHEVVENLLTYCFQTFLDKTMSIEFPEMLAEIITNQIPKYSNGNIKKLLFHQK
Sequence of GRIP1 563-767 His6 GST fusion protein (mouse) (Q61026 other isoform, or with tags, fused parts or gaps): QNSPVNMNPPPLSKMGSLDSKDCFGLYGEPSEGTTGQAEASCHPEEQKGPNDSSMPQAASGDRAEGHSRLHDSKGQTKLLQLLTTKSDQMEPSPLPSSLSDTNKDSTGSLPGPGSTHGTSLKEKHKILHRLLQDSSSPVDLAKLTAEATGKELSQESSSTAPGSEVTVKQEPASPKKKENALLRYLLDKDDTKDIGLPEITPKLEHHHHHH

For “glucocorticoid receptor (GR), full length”, the affinity as a fraction of that of TR [1] was 0.2 fold of TR and the fold increase of binding against GRIP1 (563-767) [2] was 3 fold.

In the case of “NR-box 2 peptide with the isoleucine of NR-box 2 replaced by phenylalanine”, the fold reduction of affinity against the NR-box 2 peptide [3] is reported as 10 fold.

“GST-GRIP1 (563-767) His6 with non-functional NR-box 2 (hydrophobic residues of NR-box 2 replaced with alanine) (from UniProt Q61026 563-767)” was tested, and the loss of TR binding [4] was 50% and the EC50 [5] was 4 µM.

For peptide containing GRIP1 NR-box 1, the EC50 [6] was 130 µM.

“peptide containing the p53 binding site (FxxLW motif)” was tested, and the fold weaker binding than a peptide containing NR-box 3 [7] was 10 fold.

With “GST-GRIP1 (563-767) His6 with non-functional NR-box 3 (hydrophobic residues of NR-box 3 replaced with alanine) (from UniProt Q61026 563-767)” the fold stronger binding of TR for NR-box 2 over NR-box 3 [8] was 4 fold and the EC50 [9] was 1 µM.

With “peptide containing the VP16 binding site (FxxAL motif)” the fold weaker binding than a peptide containing NR-box 3 [7] was 10 fold.

For ENALLRYLLDKDD [GRIP1 NR-box 3 peptide ENALLRYLLDKDD], the EC50 [10] was 4 µM.

B1: human thyroid hormone receptor β1 (hTRβ1), full-length 461 amino acids, wild type (receptor, UniProt P10828 1-461, looked up)
chain: T3 sequence (looked up) with R454L
modifications: [35S]-Met labelled (in vitro translated)
For B1, the “T3-dependent reporter gene activity in HeLa cells” value [11] was 5 fold.

B2: GST-GRIP1 (GRIP1 amino acids 721-1121) (other, mouse, UniProt Q61026 721-1121, looked up)
chain: STAPGSEVTVKQEPASPKKKENALLRYLLDKDDTKDIGLPEITPKLERLDSKTDPASNTKLIAMKTVKEEVSFEPSDQPGSELDNLEEILDDLQNSQLPQLFPDTRPGAPTGSVDKQAIINDLMQLTADSSPVPPAGAQKAALRMSQSTFNNPRPGQLGRLLPNQNLPLDITLQSPTGAGPFPPIRNSSPYSVIPQPGMMGNQGMLGSQGNLGNNSTGMIGSSTSRPSMPSGEWAPQSPAVRVTCAATTGAMNRPVQGGMIRNPTASIPMRANSQPGQRQMLQSQVMNIGPSELEMNMGGPQYNQQQAPPNQTAPWPESILPIDQASFASQNRQPFGSSPDDLLCPHPAAESPSDEGALLDQLYLALRNFDGLEEIDRALGIPELVSQSQAVDAEQFSSQE
notes: not shown: glutathione-S-transferase (GST) from the pGEX vector
B2: no binding [12]; no binding [13].

Molecule EKHKILHRLLQDS (also called original NR-box 2 peptide) [GRIP1 NR-box 2 peptide EKHKILHRLLQDS] has an EC50 [10] of 1.5 µM.

B3: GST-hERα LBD (282-595) E542K (receptor)
chain: SAGDMRAANLWPSPLMIKRSKKNSLALSLTADQMVSALLDAEPPILYSEYDPTRPFSEASMMGLLTNLADRELVHMINWAKRVPGFVDLTLHDQVHLLECAWLEILMIGLVWRSMEHPGKLLFAPNLLLDRNQGKCVEGMVEIFDMLLATSSRFRMMNLQGEEFVCLKSIILLNSGVYTFLSSTLKSLEEKDHIHRVLDKITDTLIHLMAKAGLTLQQQHQRLAQLLLILSHIRHMSNKGMEHLYSMKCKNVVPLYDLLLKMLDAHRLHAPTSRGGASVEETDQSHLATAGSTSSHSLQKYYITGEAEGFPATV
notes: not shown: GST carrier (pGEX-3X) at the N end and its linker
B3: no binding [14].

B4: GST-hERα LBD (282-595) K362A (receptor)
chain: B3 chain with K81A, K261E
notes: as for B3
B4: no binding [14].

B5: GST-hERα LBD (282-595) V376R (receptor)
chain: B3 chain with V95R, K261E
notes: as for B3
B5: no binding [15].

B6: GST-hERα LBD (282-595) I358R (receptor)
chain: B3 chain with I77R, K261E
notes: as for B3
B6: no binding [15].

B7: GST-hERα LBD (282-595) L539R (receptor)
chain: B3 chain with L258R, K261E
notes: as for B3
B7: no binding [15].

KHKILHRLLQDSS (also called GRIP1 site 2 peptide) [GRIP1 NR-box 2 peptide 686-KHKILHRLLQDSS-698]: binds [16].
